Results as given in publication PMC4764573, “A deep proteomics perspective on CRM1-mediated nuclear export and nucleocytoplasmic partitioning” (eLife, 2015).

Biological target: mmCRM1 (mouse CRM1), in solution in the direct binding assay (mouse, UniProt Q6P5F9 1-1071)
Test: pull-down; 250 pmoles His14-ZZ-bdSUMO tagged candidate on 20 μl anti-ZZ beads; 300 pmoles mmCRM1 with or without 1500 pmoles RanGTP (hsRanQ69L^5-180) in 500 µl; 3 hr at 4°C; elution by bdSENP1 protease; SDS-PAGE and Coomassie-staining
Conditions: both partners purified

mmCRM1 (mouse CRM1), in solution in the direct binding assay, sequence (Q6P5F9 whole entry): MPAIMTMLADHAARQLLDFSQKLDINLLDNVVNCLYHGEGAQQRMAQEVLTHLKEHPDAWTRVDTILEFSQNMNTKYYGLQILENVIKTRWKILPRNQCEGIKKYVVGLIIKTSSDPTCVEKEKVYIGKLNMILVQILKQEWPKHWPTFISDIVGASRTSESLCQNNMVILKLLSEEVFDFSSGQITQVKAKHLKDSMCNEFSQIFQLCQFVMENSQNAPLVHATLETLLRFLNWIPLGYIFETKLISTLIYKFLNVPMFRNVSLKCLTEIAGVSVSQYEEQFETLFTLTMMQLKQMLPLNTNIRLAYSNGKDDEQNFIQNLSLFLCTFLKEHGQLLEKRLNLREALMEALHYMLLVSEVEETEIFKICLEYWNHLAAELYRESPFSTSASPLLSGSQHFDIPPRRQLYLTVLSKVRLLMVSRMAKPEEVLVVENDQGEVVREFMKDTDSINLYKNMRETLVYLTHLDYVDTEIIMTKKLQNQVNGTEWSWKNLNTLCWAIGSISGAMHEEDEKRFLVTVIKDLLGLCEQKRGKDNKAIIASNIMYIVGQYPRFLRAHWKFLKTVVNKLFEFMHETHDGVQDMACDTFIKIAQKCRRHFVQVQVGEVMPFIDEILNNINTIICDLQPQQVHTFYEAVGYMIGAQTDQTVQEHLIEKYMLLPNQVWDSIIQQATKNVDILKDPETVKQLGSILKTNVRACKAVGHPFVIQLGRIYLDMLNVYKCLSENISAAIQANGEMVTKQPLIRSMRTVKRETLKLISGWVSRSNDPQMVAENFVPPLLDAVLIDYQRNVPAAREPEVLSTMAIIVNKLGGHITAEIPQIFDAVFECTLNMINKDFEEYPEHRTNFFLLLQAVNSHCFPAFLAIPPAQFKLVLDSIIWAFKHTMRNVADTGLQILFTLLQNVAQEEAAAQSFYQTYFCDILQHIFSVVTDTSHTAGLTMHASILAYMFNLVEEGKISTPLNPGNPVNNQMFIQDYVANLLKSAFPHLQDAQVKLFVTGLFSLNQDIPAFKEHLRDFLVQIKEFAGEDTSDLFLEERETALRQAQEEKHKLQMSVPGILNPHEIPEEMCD

- binding result: binds
B1: H14-ZZ-Sumo tagged ARP2/3 1b (natural protein)
chain: not shown
notes: subunit 1b of the ARP2/3 complex, Xenopus; see Supplementary file 6; also called subunit 1b of the ARP2/3 complex; source: E. coli, purified (Ni2+ chelate chromatography, imidazole elution)
